# Measurements from US20140147887A1, “NOVEL 12 ALPHA-HYDROXYSTEROID DEHYDROGENASES, PRODUCTION AND USE THEREOF” (PharmaZell GmbH, priority 2006, published 2014).
# Experiment: Standard 12α-HSDH activity determination (NADP+-dependent oxidation of cholic acid, absorption at 340 nm)
# Assay type: biochemical
# Set-up: unit not given here
# Conditions: cell lysate
# Experimental: The activity is defined as follows: 1 U of the enzyme corresponds to the amount of enzyme which catalyzes the reaction of 1 μmol/min of a 5 mM cholic acid solution in potassium phosphate buffer (50 mM, pH 8.0) at room temperature (i.e. about 20° C.-23° C.).
# For the activity determination, 790 μl of potassium phosphate buffer (50 mM, pH 8.0), […] of cholic acid (50 mM in potassium phosphate buffer (50 mM, pH 8.0)) and 10 μl of enzyme solution to be measured were mixed in a cuvette. 100 μl of NADP^+ (2.5 mM) was added at the start of the reaction and the increase in the absorption at 340 nm was determined photometrically. The gradient over 30 s was determined at RT. Determination of the activity took place according to the Lambert-Beer's law.
# [1] = E. coli BL21 (DE3), expression period 4 h
# [2] = E. coli BL21 (DE3), expression period 22 h
# [3] = E. coli Rosetta (DE3), expression period 4 h
# [4] = E. coli Rosetta (DE3), expression period 22 h
molecule,measurement,setting,value
"HSDH_long: long version of 12α-HSDH from Clostridium sp. group P strain 48-50, SEQ ID NO: 2, recombinantly expressed in E. coli (protein, listed as Clostridium sp.) MDFIDFKEMGRMGIFDGKVAIITGGGKAKSIGYGIAVAYAKEGANLVLTGRNEQKLLDAKEELERLYGIKVLPLAVDVTPSDESEDRVKEAVQKVIAEFGRIDVLINNAQASASGIPLSMQTKDHFDLGIYSGLYATFYYMRECYPYLKETQGSVINFASGAGLFGNVGQCSYAAAKEGIRGLSRVAATEWGKDNINVNVVCPLAMTAQLENFKLSYPEAYEKNLRGVPMGRFGDPELDIGRVCVQLGSPDFKYMSGETLTLEGGMGQRP",Activity [of culture medium],[1],12700
same,Activity [of culture medium],[2],36800
same,Activity [of culture medium],[3],3100
same,Activity [of culture medium],[4],19500
"HSDH_short: N-terminally truncated short version of 12α-HSDH from Clostridium sp. group P strain 48-50, SEQ ID NO: 4 (protein) IFDGKVAIITGGGKAKSIGYGIAVAYAKEGANLVLTGRNEQKLLDAKEELERLYGIKVLPLAVDVTPSDESEDRVKEAVQKVIAEFGRIDVLINNAQASASGIPLSMQTKDHFDLGIYSGLYATFYYMRECYPYLKETQGSVINFASGAGLFGNVGQCSYAAAKEGIRGLSRVAATEWGKDNINVNVVCPLAMTAQLENFKLSYPEAYEKNLRGVPMGRFGDPELDIGRVCVQLGSPDFKYMSGETLTLEGGMGQRP",Activity [of culture medium],[1],12800
same,Activity [of culture medium],[2],33000
same,Activity [of culture medium],[3],3400
same,Activity [of culture medium],[4],24300
